Test results as given in CN107674122A (TIANJIN TIMMUNE BIOTECH INC, dated 2018).

B1: HF11 单域抗体 (phage-displayed clone, culture supernatant) (VHH)
VHH: QVQLLESGGGLVQPGGSLRLSCAASGVKISYESMAWVRQAPGKGLEWVSSILMQNGSTYYADSVKGRFTISRDNSKNTLYLQMNSLRAEDTAVYYCATTRVRRPANMKYWGQGTLVTVSS
notes: Human heavy-chain single domain antibody on a DP47 framework; Tested in ELISA as phage in culture supernatant; not shown: Myc and VSV-G tags and phage GIII protein of display vector pBG3
B2: 融合蛋白HF11-FC (expressed from pcDNA3.1 in 293F cells) (Fc fusion)
chain: B1 VHH
notes: The secreted protein was purified on Protein A; not shown: human Fc; residues encoded by the BamHI site between the single domain antibody and Fc; no
B3: HB5 单域抗体 (phage-displayed clone, culture supernatant) (VHH)
VHH: QVQLLESGGGLVQPGGSLRLSCAASGVKAINHTMGWVRQAPGKGLEWVSAIRTPDGSTYYADSVKGRFTISRDNSKNTLYLQMNSLRAEDTAVYYCASVGDNAGSSSPPFASWGQGTLVTVSS
notes: Human heavy-chain single domain antibody on a DP47 framework; Tested in ELISA as phage in culture supernatant, detected with an HRP-labelled anti-phage antibody; not shown: Myc and VSV-G tags and phage GIII protein of display vector pBG3
B4: HE9 单域抗体 (phage-displayed clone, culture supernatant) (VHH)
VHH: QVQLLESGGGLVQPGGSLRLSCAASGFMVTSEIMGWVRQAPGKGLEWVSTIVANNGSTYYADSVKGRFTISRDNSKNTLYLQMNSLRAEDTAVYYCASPPRRTGVDGTESMHFWGQGTLVTVSS
notes: as for B1

How the values were obtained:
[1] = target: IgG (coated control antigen); test: phage ELISA, IgG coated, A650
[2] = target: T1, 人血清白蛋白 (human serum albumin) (human, UniProt P02768 25-609); test: ELISA, HSA coated, A650
T1 construct: also called HSA
T1 sequence (P02768 25-609 limits assumed): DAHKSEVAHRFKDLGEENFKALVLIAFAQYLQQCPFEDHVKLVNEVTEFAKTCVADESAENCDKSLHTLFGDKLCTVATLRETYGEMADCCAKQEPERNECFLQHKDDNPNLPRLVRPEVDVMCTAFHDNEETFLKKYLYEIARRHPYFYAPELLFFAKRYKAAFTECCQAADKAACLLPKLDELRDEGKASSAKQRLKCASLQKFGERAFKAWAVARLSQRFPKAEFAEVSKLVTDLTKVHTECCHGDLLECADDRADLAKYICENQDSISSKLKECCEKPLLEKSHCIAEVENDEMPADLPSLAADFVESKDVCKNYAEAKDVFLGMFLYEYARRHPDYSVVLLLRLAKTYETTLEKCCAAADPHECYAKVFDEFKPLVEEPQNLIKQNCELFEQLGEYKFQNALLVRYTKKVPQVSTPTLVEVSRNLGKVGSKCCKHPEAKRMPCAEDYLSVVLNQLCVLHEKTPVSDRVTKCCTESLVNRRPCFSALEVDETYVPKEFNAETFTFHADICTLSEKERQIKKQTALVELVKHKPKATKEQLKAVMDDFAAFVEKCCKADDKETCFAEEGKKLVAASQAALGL

[3] = target: T2, 牛血清白蛋白 (bovine serum albumin) (bovine, UniProt P02769 25-607); test: ELISA, antigen coated, purified HF11-FC, A650
T2 construct: also called BSA
T2 sequence (P02769 25-607 limits assumed): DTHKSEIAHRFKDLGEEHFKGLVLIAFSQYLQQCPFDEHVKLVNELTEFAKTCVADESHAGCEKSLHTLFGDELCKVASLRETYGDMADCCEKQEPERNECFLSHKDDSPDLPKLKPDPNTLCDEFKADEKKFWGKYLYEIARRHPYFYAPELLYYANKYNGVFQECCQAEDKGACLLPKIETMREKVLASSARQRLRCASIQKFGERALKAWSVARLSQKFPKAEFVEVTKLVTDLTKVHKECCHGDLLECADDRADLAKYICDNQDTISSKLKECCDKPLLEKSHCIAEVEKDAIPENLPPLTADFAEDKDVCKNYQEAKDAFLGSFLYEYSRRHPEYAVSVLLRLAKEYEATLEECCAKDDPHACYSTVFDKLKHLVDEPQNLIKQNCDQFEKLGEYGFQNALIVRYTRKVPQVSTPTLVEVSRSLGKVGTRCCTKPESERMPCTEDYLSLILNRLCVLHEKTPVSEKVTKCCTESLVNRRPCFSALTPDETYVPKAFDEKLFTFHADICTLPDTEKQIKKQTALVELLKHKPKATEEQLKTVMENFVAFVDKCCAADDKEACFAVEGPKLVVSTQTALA

[4] = target: T1, 人血清白蛋白 (human serum albumin); test: phage ELISA, HSA coated, A650

Binder	A650 [1] [A650]	binding result [2]	binding result [3]	binding result [4]
B1	≤ 0.3			
B2		binds	no binding	
B3	≤ 0.3			binds
B4	≤ 0.3			binds
